Assay results taken from the DeepSol protein solubility set.

Assay: soluble on expression in E. coli; label from the status in PepcDB or PDB records

Sequence | soluble on expression in E. coli
MDILILFYNTMWGFPLEFRKEDLPGGCVITTDRNLIAKADAVVFHLPDLPSVMEDEIDKREGQLWVGWSLECEENYSWTKDPEFRESFDLWMGYHQEDDIVYPYYGPDYGKMLVTARREKPYKKKACMFISSDMNRSHRQEYLKELMQYTDIDSYGKLYRNCELPVEDRGRDTLLSVIGDYQFVISFENAIGKDYVTEKFFNPLLAGTVPVYLGAPNIREFAPGENCFLDICTFDSPEGVAAFMNQCYDDEALYERFYAWRKRPLLLSFTKKLEQVRSNPLIRLCQKIHELKLGGILEHHHHHH | not soluble
MDINKMTYAVQSALQQAVELSQQHKLQNIEIEAILSAALNESESLYKSILERANIEVDQLNKAYEDKLNTYASVEGDNIQYGQYISQQANQLITKAESYMKEYEDEYISMEHILRSAMDIDQTTKHYINNKVEVIKEIIKKVRGGNHVTSQNPEVNYEALAKYGRDLVEEVRQGKMDPVIGRDEEIRNTIRILSRKTKNNPVLIGEPGVGKTAIVEGLAQRIVKKDVPESLLDKTVFELDLSALVAGAKYRGEFEERLKAVLKEVKESDGRIILFIDEIHMLVGAGKTDGAMDAGNMLKPMLARGELHCIGATTLNEYREYIEKDSALERRFQKVAVSEPDVEDTISILRGLKERYEVYHGVRIQDRALVAAAELSDRYITDRFLPDKAIDLVDQACATIRTEMGSNPTELDQVNRRVMQLEIEESALKNESDNASKQRLQELQEELANEKEKQAALQSRVESEKEKIANLQEKRAQLDESRQALEDAQTNNNLEKAAELQYGTIPQLEKELRELEDNFQDEQGEDTDRMIREVVTDEEIGDIVSQWTGIPVSKLVETEREKLLHLSDILHKRVVGQDKAVDLVSDAVVRARAGIKDPNRPIGSFLFLGPTGVGKTELAKSLAASLFDSEKHMIRIDMSEYMEKHAVSRLIGAPPGYIGHDEGGQLTEAVRRNPYSVILLDEVEKAHTDVFNVLLQILDEGRLTDSKGRSVDFKNTIIIMTSNIGSQVLLENVKETGEITESTEKAVMTSLNAYFKPEILNRMDDIVLFKPLSIDDMSMIVDKILTQLNIRLLEQRISIEVSDDAKAWLGQEAYEPQYGARPLKRFVQRQIETPLARMMIKEGFPEGTTIKVNLNSDNNLTFNVEKIHE | not soluble
MDITPALTEMELDHKPTCETVPGLPQKKHYRQRAHSNPHSDHDIEYPLTPNHMDWTKYYGDYTKGRQVDFADIGCGYGGLLMRLSPKYPDNLMIGMEIRVKVSDYVNEKIQALRKHHAEAGHYRNVAVLRSNAMKYMPNYFHKGQLSKMFFLFPDPHFKNKKHKWRIITPTLLSEYAYVLREGGIIYTITDVKDLHEWMVKHLSEHPLFERLTEEEMKKDPIVEMLFESTEEGQKVTRNDGGKWPAIFRRLPNPAL | not soluble
MDIVDEKWEEYLKNLDEMSKSALLETFNIGASHAATALSEMTGKEVNISVPDLKIIAIKNVPEVVGEDVKVAVYIELGKDFSSHAFFIADYEDALRMFDIIMGNPLGTTKEMDEMVKSSFMEVGNILISAFANALSEFLGITIEQTPPSLAIDFLPAILDFALADIGKYCDYTIILQTNIKISDVKFEEHFLLFPKPEDMKKILEKLLGGFA | soluble
MDKIIFQRVTDCEYPSLFSIYKKYLKPTIEEALGWDELYQQQRFNQSYQKEWFDWIMYNGERLGIICTKPDAIRSTIHIHLLIVFEKYQNKGVGTAVMKCYQKHYSDAVTKSCLSAFKVNKSVINFYLSLGYQIVREDEHFVEMERSLCFSGYMGES | not soluble
MDKSELFLTFEAKVKGKKINLPDLKIADGVISTEALASALNASAAIAPDAFQRIIKQAYDANIMFLIQQAQIRAQEINKGEVKDWKDLVANAKDAPNQDVTVEVQAYASPDGGVELNEKLSEQREKNTTTALKKQFQKSNIKDVEINAHYTAQDWEGFKQLVEKSDIQDKELVLRVLSMYPDPEQREQEIKNISTVFRQLADDILPQLRRSRLIANVEIIGKSDDEIKRLAAQNPGRLTVEELLYSATLLESPAQKE | not soluble
MDKSTPRRTYNLRSADRTTQNSPVSRQSLENHRNASVSLRKRSSTSSLQRIQSEFTFTDSATEERCSRKRRRTQQTHGLPFSSPDAINHQRAFHLDEHKVCSKLTTRLSIEVETSYGSFGKLPYDAVIHILTRTPYNLLSRMVMTSSCWNQTIGAYMRSGAFRRRWLLDIDIAPSSKPLDPFFDMGKLVRCLTINYEWKARLDCLKSFMTLAYESGALIAGLGKMIHAFTNRPDEDIVLEQIDDIVAMLLALVSGLKDDLSAVLFTPETDRELEELDNMPILREEMKLRKKTLNLFLNNGSSDPAHGVNKYFLSSLMKVFKTAHNALPTALFYLLFSPTTIQDDEEVIHWHRLSLLSVVTSEEAEELKPLSRAMCALIQCRNLKHVLPWSKNTIFNLMEEITTYPNPWSMSTFVALNVLEPELVPIGVVARMNRNHEDEAGDIICTMKMLLHRWDMDVYGVMESIIDTIKAVLKPYQRRILFDRCWDWHQRNIDEHRNQMGHFSDIRAEIESQIEVMPVLMKLL | not soluble
MDKTQSYDIFLIAPPGLEQVLAEEATACGFDEPRVVPGGVETRGPWSEVMRANLVLRGAGRVLVRIGGFPAVHLAQLDKRARKFAWGDFLRPDRPIRVEAVSRKSKIYHAGAAKQRVERAITEELGAPISDEAEIRLMLRIERDFCTFSIDTSGEALHKRGHKEAVGKAPMRETMAALFLRQCGFDGAEPVLDPMCGSGSFVIEAAEWAAGLMPGRSRSFAFEQLAGFDAAQWQSMRNAAGAGGRPESLYSGSDRNAGAIDASRANATRAGVADFCAFHQRPVSDIRPPEGRPGLVIVNPPYGARIGDQARLRSLYGSLGKVLMDRFSGWRVGLITSEMSLARSTRLPFQAPGPVVDHGGIKVRLYQSVRLR | not soluble
MDKVIFYSNIRNLIFKKCSIQFLIINDTVAHKEQVAMREMNQLVNTEDSAWPIIQNWLKDATNHTELLPVNKDLAETALYQLQVTTKSPMGALVYGSGGLLIDNGLEHHHHHH | not soluble
MDKVLDSALLSSANKRKGILAIGAHPDDIELGCGASLARLAQKGIYIAAVVMTTGNSGTDGIIDRHEESRNALKILGCHQTIHLNFADTRAHLQLNDMISALEDIIKNQIPSDVEIMRVYTMHDADRHQDHLAVYQASMVACRTIPQILGYETPSTWLSFMPQVFESVKEEYFTVKLAALKKHKS | soluble
MDLEMMLDEDYKEGICLINFSQIALSTALVNFPDKEKINLSMVRHLILNSIKFNVKKAKTLGYTKIVLCIDNAKSGYWRRDFAYYYKKNRGKAREESTWDWEGYFESSHKVIDELKAYMPYIVMDIDKYEADDHIAVLVKKFSLEGHKILIISSDGDFTQLHKYPNVKQWSPMHKKWVKIKSGSAEIDCMTKILKGDKKDNVASVKVRSDFWFTRVEGERTPSMKTSIVEAIANDREQAKVLLTESEYNRYKENLVLIDFDYIPDNIASNIVNYYNSYKLPPRGKIYSYFVKAGLSKLTNSINEF | soluble
MDLFTRKDGTSIHYSTLGEGYPIVLIHTVLDNYSVFNKLAAELAKSFQVVLIDLRGHGYSDKPRHIEIKDFSDDIVELLKYLYIEEVAFVCHEMGGIIGADISVRYPEFTSSLTLVNPTSIEGELPEERLFRKYAHIIRNWDPEKQDKFLNKRKYYRPRKMNRFLKHVVDTNEISTKEEIQAVKEVFKNADISQTYRNVVVPTKIIAGEFGERTTRLEAKEVADLIQNADFEVYQESSAFPFVEEQERFVEDTAAFINKHHDEKHV | not soluble
MDLGEFPAPDPSVLVQNFNISDFNGKWYITSGLNPTFDAFDCQLHEFHTEGDNKLVGNISWRIKTLDSGFFTRSAVQKFVQDPNQPGVLYNHDNEYLHYQDDWYILSSKIENKPEDYIFVYYRGRNDAWDGYGGAVVYTRSSVLPNSIIPELEKAAKSIGRDFSTFIRTDNTCGPEPRSHHHHHH | soluble
MDLSNRTVLIVGGTSGIGRELARRFAAAGSTVAVGGRSPEALSELAGEGFGTISIDVTDSASVASARDAVLARYPELDTVVTMPGIMLLEDLRDPAHFEAAATTIDTNLVGTIRVIDAFTPHLVRRGAGTFITVTSGIAFLPFPPMPTYAASKAAVHAYSEALRAQLDGTGVSVVELVPPAVATAGQEKVNPHALPLDDFATEVVQLLSEDPTPREILVKAALMHRWAERDGTYDDLVAQRSQALAMLPSREG | not soluble
MDLSQGPVRAAQAAPQVLCTASVHHDHPHAIETLVEALGPVELELILLMASPQTDIPALLARAAAVLPGTRIVGCTTAGEISAAGYTEGEIVAIGMPRAYFKAQTMLIDDLTDYDAQAIIDRMIQTRNDLAAARPEWGHEFNFLLIDGLSTLEDRLVSDLAMGLGPVPLFGGSAGDGERFGTTFVFHEGRAHGNAAVLMQVRTRCPIQVFKTDHLIPTEKRMVVTGADPDRRLVHEINAEPAAREYARVLGKDPEQLTTFTFAAHPVVVRIGGQHHVRSIQRVAENGDLVFFSAIDEGLVLTLAEARDMREHLREELGRLAADGPPAVILGCDCLLRRMEAQQKQVLGALSDILRENRVVGFSTYGEQFNSMHVNQTLTGVAIYPPDDM | soluble
MDLSVTHMDDLKTVMEDWKNELLVYKFALDALDTKFSIISQEYNLIHGHNPIEHTKSRVKSFESIVNKLMRKGCEITTKEMKEHIHDIAGVRIICSFISDIYNVVNVLKQHEDLRIVKVKDYIQTPKPNGYRSLHLIIEMPVNLTNRVEYVKAEIQIRTIAMDFWASLEHKIYYKLNNDVPKQLTDELKEAAEIAHYLDEKMLGIKKEVD | not soluble
MDLTVEPNLHSLITSTTHKWIFVGGKGGVGKTTSSCSIAIQMALSQPNKQFLLISTDPAHNLSDAFGEKFGKDARKVTGMNNLSCMEIDPSAALKDMNDMAVSRANNNGSDGQGDDLGSLLQGGALADLTGSIPGIDEALSFMEVMKHIKRQEQGEGETFDTVIFDTAPTGHTLRFLQLPNTLSKLLEKFGEITNKLGPMLNSFMGAGNVDISGKLNELKANVETIRQQFTDPDLTTFVCVCISEFLSLYETERLIQELISYDMDVNSIIVNQLLFAENDQEHNCKRCQARWKMQKKYLDQIDELYEDFHVVKMPLCAGEIRGLNNLTKFSQFLNKEYNPITDGKVIYELEDKEGLVPRGSLEHHHHHH | soluble
MDMMWISYHLKKGGRRLRIRIGIDIGSTHTDAVALEGKELIVADKVMTTPDLTTGLLNAISRVMKKLGERKNEVDTLMIGTTHGLNALHQGKGLNRVATIRIGLPAGEGVPPVFDWPEQLSNFVTYRYMVRGGHEYTGEEIVELDEGKIKEIAEAINGKVDAIAISSIFSVVNSSHEIRAREILREKG | not soluble
MDMQHDDLNYEYLYGTTYPLMKNAGKAVADAVMKNYPDARTVCVVAGTGNNGGDAIVAGSILSAKYDVRVLIVTEVRSELARRALSEYGGRVIGLDGMEECMKCDVIIDGIFGVGISGDPKDPYRSVIENINRSCSHVVSVDIPSGLGTRYAVKPEITVTFTMEKYGMNQDNSGKIIVADIGIPPDVRKYAGPGDLLYYPKPDPSSHKGMNGTLAIVGGWEFHGSSVIAALAAERIGLDLVRVFVSPRNYQIVSGYDPGIIVRQVEKLDEKKLSEIYGNSAILLGPGMGKGDDAMEAARKIVSDSRVPMVVDADALDAVGAYSGSFAGRKIIITPHKGEFRRISGFEPTEENAISYARKKGLIVVLKGQVDVITNGEEVHYAKGGNARMTMGGTGDLLAGIISAFLARSVDPMRACLMGTYLNKALGEAAYSKHGYWYTVTDMISEIPGVMGKYIKI | not soluble
